These are literature values, as cited in publication PMC12528386.

The series deals with BamA (Escherichia coli) (UniProt P0A940).

Usually Kd stands for the free concentration of one partner at which half of the binding sites on the other are occupied at equilibrium, for simple one-to-one binding. Regarding RcsF (from UniProt P69411), the Kd is 400 nM.
